Consider 3 molecules from article PMC5038948 (PLoS ONE, 2016).

What all share (conditions): both partners purified
Test [1] addresses T1, Amyloid beta 1–42 (Aβ1–42) (UniProt P05067 672-713).
T1 construct: amyloid beta 1-42, the cut product of amyloid precursor protein (APP); numbers count on: the Aβ peptide; source: bought: Bachem (95.2% pure by HPLC), dissolved in 1 mM sodium hydroxide
The test can be described thus: ELISA; CAP37, neutrophil elastase or cathepsin G (0.5 μg/well) or BSA (1000 μg/well) coated; Aβ1-42 0–111 nM in PBST with 0.1% BSA and protease inhibitor cocktail; bound Aβ1-42 detected with anti-APP/Aβ; BSA subtracted as background for KD.

Test [2] has as its target T2, Recombinant human RAGE Fc chimera (human, UniProt Q15109 23-342).
T2 construct: receptor for advanced glycation end products (RAGE), human, recombinant, fused to Fc; No catalogue number printed; also called receptor for advanced glycation end products; AGER; source: bought: R&D Systems
The test can be described thus: ELISA; competition: RAGE Fc chimera coated (0.5 μg/well, 83.3 nM); Aβ1-42 (11 nM) added at the same time as CAP37 (0–2.5 μM) or neutrophil elastase (0–0.5 μM); no protease inhibitors; bound Aβ1-42 detected with anti-APP/Aβ.

Test [3] deals with T2, Recombinant human RAGE Fc chimera. The experiment in a line: ELISA; CAP37, neutrophil elastase, cathepsin G or Aβ1-42 (0.5 μg/well) or BSA (1000 μg/well) coated on Maxisorp plates in PBS pH 7.4; RAGE Fc chimera 0–3.3 nM in PBST with 0.1% BSA, 37°C, 70 min; bound RAGE detected with goat anti-RAGE; BSA subtracted as background for KD.

T2 sequence (Q15109 23-342, change not shown): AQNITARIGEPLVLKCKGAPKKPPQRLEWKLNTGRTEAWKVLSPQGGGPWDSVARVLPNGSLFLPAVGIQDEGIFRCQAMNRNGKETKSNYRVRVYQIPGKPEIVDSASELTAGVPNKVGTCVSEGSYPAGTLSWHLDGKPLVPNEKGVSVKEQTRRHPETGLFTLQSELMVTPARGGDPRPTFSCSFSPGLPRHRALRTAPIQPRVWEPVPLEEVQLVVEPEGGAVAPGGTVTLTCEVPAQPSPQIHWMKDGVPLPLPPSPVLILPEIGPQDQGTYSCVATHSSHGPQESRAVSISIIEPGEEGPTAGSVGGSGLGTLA

B1: cationic antimicrobial protein of 37kDa (CAP37) (natural protein, human, UniProt P20160 27-251, looked up)
chain: IVGGRKARPRQFPFLASIQNQGRHFCGGALIHARFVMTAASCFQSQNPGVSTVVLGAYDLRRRERQSRQTFSISSMSENGYDPQQNLNDLMLLQLDREANLTSSVTILPLPLQNATVEAGTRCQVAGWGSQRSGGRLSRFPRFVNVTVTPEDQCRPNNVCTGVLTRRGGICNGDGGTPLVCEGLAHGVASFSLGPCGRGPDFFTRVALFRDWIDGVLNNPGPGPA
notes: cationic antimicrobial protein of 37kDa (CAP37, encoded by AZU1), human, purified from neutrophils, >95% pure by SDS-PAGE; also called AZU1; source: purified from human neutrophils; bought: Athens Research & Technology
With B1, the Kd in test [1] was determined as 37.9 nM; in test [3] it was 1.26 nM. Further, the IC50 in test [2] came out at 1280 nM.

B2: neutrophil elastase (enzyme)
chain: IVGGRRARPHAWPFMVSLQLRGGHFCGATLIAPNFVMSAAHCVANVNVRAVRVVLGAHNLSRREPTRQVFAVQRIFENGYDPVNLLNDIVILQLNGSATINANVQVAQLPAQGRRLGNGVQCLAMGWGLLGRNRGIASVLQELNVTVVTSLCRRSNVCTLVRGRQAGVCFGDSGSPLVCNGLIHGIASFVRGGCASGLYPDAFAPVAQFVNWIDSIIQ
modifications: native N-glycosylated, disulfide-bonded active enzyme from human neutrophils. Limits are not printed: the signal and activation dipeptide are removed (starts at 30), and the C-terminal propeptide is …
In the case of B2, the Kd in test [3] is 3.25 nM.

B3: cathepsin G (enzyme, human, UniProt P08311 21-244, looked up)
chain: IIGGRESRPHSRPYMAYLQIQSPAGQSRCGGFLVREDFVLTAAHCWGSNINVTLGAHNIQRRENTQQHITARRAIRHPQYNQRTIQNDIMLLQLSRRVRRNRNVNPVALPRAQEGLRPGTLCTVAGWGRVSMRRGTDTLREVQLRVQRDRQCLRIFGSYDPRRQICVGDRRERKAAFKGDSGGPLLCNNVAHGIVSYGKSSGVPPEVFTRVSSFLPWIRTTMRS
notes: cathepsin G (CTSG), human, purified from neutrophils, >95% pure by SDS-PAGE; also called CG; CTSG; source: purified from human neutrophils; bought: Athens Research & Technology
Regarding B3, the Kd in test [1] turned out to be 20.7 nM; in test [3], 0.45 nM.
